Substitutions are numbered along the chain they refer to.
B1: unnamed (protein)
chain: MANPYERGPDPTESSIEAVRGPFAVAQTTVSRLQADGFGGGTIYYPTDTSQGTFGAVAISPGFTAGQESIAWLGPRIASQGFVVITIDTITRLDQPDSRGRQLQAALDHLRTNSVVRNRIDPNRMAVMGHSMGGGGALSAAANNTSLEAAIPLQGWHTRKNWSSVRTPTLVVGAQLDTIAPVSSHSEAFYNSLPSDLDKAYMELRGASHMVSNTPDTTTAKYSIAWLKRFVDDDLRYEQFLCPAPDDFAISEYRSTCPF
B2: unnamed (protein)
chain: B1 chain with W156A, M210L
B3: unnamed (protein)
chain: B1 chain with F63Y, M210L
B4: unnamed (protein)
chain: B1 chain with M210P
B5: unnamed (protein)
chain: B1 chain with M210D
B6: unnamed (protein)
chain: B1 chain with W156F, M210L
B7: unnamed (protein)
chain: B1 chain with M210H
B8: unnamed (protein)
chain: B1 chain with I179Y, M210L
B9: unnamed (protein)
chain: B1 chain with W156H, M210L
B10: unnamed (protein)
chain: B1 chain with L93F, Q95Y, R205C, M210L, S251C
B11: unnamed (protein)
chain: B1 chain with M210V
B12: unnamed (protein)
chain: B1 chain with F63A, M210L
B13: unnamed (protein)
chain: B1 chain with M210T
B14: unnamed (protein)
chain: B1 chain with M210R
B15: unnamed (protein)
chain: B1 chain with M210F
B16: unnamed (protein)
chain: B1 chain with M210C
B17: unnamed (protein)
chain: B1 chain with M210Q
B18: unnamed (protein)
chain: B1 chain with M210E

Substrate: gfPET
Assay: Proxy for plastic degradation [Relative activity]
Conditions: pH 8

Row | Protein | Proxy for plastic degradation
1 | B1 | 74%
2 | B2 | 5%
3 | B3 | 65%
4 | B4 | 16%
5 | B5 | 66%
6 | B6 | 8%
7 | B7 | 54%
8 | B8 | 26%
9 | B9 | 1%
10 | B10 | 70%
11 | B11 | 61%
12 | B12 | 22%
13 | B13 | 48%
14 | B14 | 95%
15 | B15 | 58%
16 | B16 | 8%
17 | B17 | 94%
18 | B18 | 6%

From the PETadex activity labels (doi:10.1021/acscatal.2c02275)
